Laboratory results published in patent US20100166775A1 (ACTIVE BIOTECH, published 2010).

B9: recombinant human S100A9 (ligand)
chain: MTCKMSQLERNIETIINTFHQYSVKLGHPDTLNQGEFKELVRKDLQNFLKKENKNEKVIEHIMEDLDTNADKQLSFEEFIMLMARLTWASHEKMHEGDEGPGHHHKPGLGEGTP
notes: Concentrations are based on the homodimeric molecular weight; Assays were run with Ca2+ and Zn2+; also called hS100A9; rhS100A9

Tests used:
[1] = molecular target: T1, recombinant human RAGE/Fc chimera (R&D Systems cat. No. 1145-RG) (human, UniProt Q15109 23-344); assay: SPR (Biacore), 200 nM protein over amine-coupled RAGE/Fc, 1 mM CaCl2 and 10 µM ZnCl2; Req or response at late association, not corrected for mass
T1 construct: Disulfide-linked homodimer expressed in NS0 cells, glycosylated and amine-coupled to a CM5 chip; also called rhRAGE-Fc; immobilized RAGE; not shown: peptide linker between RAGE and Fc; Fc region of human IgG1
T1 sequence (Q15109 23-344, change not shown): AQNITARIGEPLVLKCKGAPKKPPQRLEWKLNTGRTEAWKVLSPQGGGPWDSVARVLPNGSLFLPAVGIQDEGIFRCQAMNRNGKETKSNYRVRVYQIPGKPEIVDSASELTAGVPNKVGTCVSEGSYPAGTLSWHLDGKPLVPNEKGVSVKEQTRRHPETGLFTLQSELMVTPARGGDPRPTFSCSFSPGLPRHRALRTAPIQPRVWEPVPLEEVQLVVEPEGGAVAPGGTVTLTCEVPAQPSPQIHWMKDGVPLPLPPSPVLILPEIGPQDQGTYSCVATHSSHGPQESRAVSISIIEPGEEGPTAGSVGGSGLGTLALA
Method: (§1) Binding analysis was performed using the “surface plasmon resonance” (SPR) technology with a Biacore 3000™ system. This technology allows analysis of an interaction between proteins and small molecules in a real-time and label-free manner. A protein or low-molecular weight compound is injected over a surface (a CM5 sensor chip) with a covalently coupled ligand and the signal produced, expressed as resonance units (RU), is directly proportional to the number and mass of the molecule interacting with the ligand on the surface. Immobilization, regeneration scouting, surface performance tests and binding studies were conducted basically according to the instructions by the manufacturer. Kinetic evaluation of binding data was carried using the BIAevaluation Software Version 3.2 (Biacore AB). Optimization of conditions for immobilization and binding analysis is carried out for each interaction to be studied.
(§2) Recombinant human RAGE was obtained from R&D Systems (cat. No. 1145-RG) as a fusion protein of the extracellular domain of RAGE, comprising a.a. 1-344, and the Fc region of human IgG₁ via a peptide linker. The chimeric protein was expressed in the mouse myleoma cell line NSO as a disulfide-linked homo-dimeric protein with a calculated molecular mass of 61 kDa. Prior to covalent coupling to the sensor chip, buffer was changed to a standard Biacore buffer (10 mM Hepes, 0.15 M NaCl, pH 7.4, containing 0.005% v/v Surfactant P20; HBS-P) using Fast Protein Desalting Micro-Spin Columns (Pierce). RAGE was diluted in an immobilization buffer shown to give sufficient pre-concentration and then covalently coupled using the “Aim at immobilization level” function in the Biacore Wizard to obtain various coupling densities. Activity of immobilized RAGE was tested by injecting a specific anti-human RAGE monoclonal antibody over the surface.

[2] = molecular target: T1, recombinant human RAGE/Fc chimera (R&D …); assay: SPR (Biacore), 200 nM protein over amine-coupled RAGE/Fc, 1 mM CaCl2 and 10 µM ZnCl2
Method: as §1, §2

[3] = molecular target: B9; assay: SPR competition: 100 nM S100A9 pre-incubated with 12.5-500 nM 43/8, injected over immobilized amino-linked Compound A (a small molecule); log-logit plot
Method: The assay was performed by coating amino-linked Compound A on a CM5 chip using standard amine coupling.

[4] = molecular target: B9; assay: SPR competition: 100 nM S100A9 pre-incubated with 12.5-500 nM 43/8, injected over immobilized RAGE-Fc; log-logit plot
Method: (§3) Binding data were transformed to a log-logit plot for calculation of IC₅₀ value.
The assay was performed by coating human RAGE on a standard CM5 chip at high density (3000 RU) using standard amine coupling.

[5] = molecular target: B9; assay: SPR competition: 100 nM human S100A9 pre-incubated with 0-400 nM 43/8 or 1C10, injected over immobilized 43/8; reference 1C10
Method: Incubated samples were then injected for 3 min at a flow rate of 30 μl/min (1; association phase) followed by injection of sample buffer (2; dissociation phase). Responses were calculated at late association phase.

[6] = molecular target: B9; assay: SPR competition: 100 nM S100A9 pre-incubated with 12.5-500 nM 43/8, injected over immobilized TLR4/MD-2; log-logit plot
Method: as §3
The assay was performed by coating human TLR4/MD-2 complex on a CM5 chip at a density of ˜3000 RU using standard amine coupling.

[7] = molecular target: T1, recombinant human RAGE/Fc chimera (R&D …); assay: placeholder

B1: murine S100A8/S100A9 complex (other)
chain 1: PSELEKALSNLIDVYHNYSNIQGNHHALYKNDFKKMVTTECPQFVQNINIENLFRELDINSDNAINFEEFLAMVIKVGVASHKDSHKE
chain 2: ANKAPSQMERSITTIIDTFHQYSRKEGHPDTLSKKEFRQMVEAQLATFMKKEKRNEALINDIMEDLDTNQDNQLSFEECMMLMAKLIFACHEKLHENNPRGHGHSHGKGCGK
notes: Heterodimer; also called murine S100A8/A9; murine complex S100A8/A9
Question: Does B1 bind [1]?
Answer: binds

B2: murine S100A9 (other, UniProt P31725 2-113, looked up)
chain: ANKAPSQMERSITTIIDTFHQYSRKEGHPDTLSKKEFRQMVEAQLATFMKKEKRNEALINDIMEDLDTNQDNQLSFEECMMLMAKLIFACHEKLHENNPRGHGHSHGKGCGK
notes: Concentration is based on the homodimeric molecular weight
Question: Does B2 bind [2]?
Answer: no binding (tested: 200 nM)

B3: murine S100A8 (other, UniProt P27005 2-89, looked up)
chain: PSELEKALSNLIDVYHNYSNIQGNHHALYKNDFKKMVTTECPQFVQNINIENLFRELDINSDNAINFEEFLAMVIKVGVASHKDSHKE
notes: as for B2
Question: Does B3 bind [2]?
Answer: no binding (tested: 200 nM)

B4: human S100A12 (other, UniProt P80511 2-92, looked up)
chain: TKLEEHLEGIVNIFHQYSVRKGHFDTLSKGELKQLLTKELANTIKNIKDKAVIDEIFQGLDANQDEQVDFQEFISLVAIALKAAHYHTHKE
notes: also called S100Al2
Question: Does B4 bind [1]?
Answer: binds

B5: S100B (other, human, UniProt P04271 1-92, looked up)
chain: MSELEKAMVALIDVFHQYSGREGDKHKLKKSELKELINNELSHFLEEIKEQEVVDKVMETLDNDGDGECDFQEFMAFVAMVTTACHEFFEHE
notes: also called S100β; recombinant human S100β
Question: Does B5 bind [2]?
Answer: no binding (tested: 200 nM)

B6: S100A1 (other, human, UniProt P23297 1-94, looked up)
chain: MGSELETAMETLINVFHAHSGKEGDKYKLSKKELKELLQTELSGFLDAQKDVDAVDKVMKELDENGDGEVDFQEYVVLVAALTVACNNFFWENS
notes: also called recombinant human S100A1
Question: Does B6 bind [2]?
Answer: no binding (tested: 200 nM)

B7: anti-S100A9 monoclonal antibody 43/8 (antibody, V domains shown)
VH: PELVKSGASVKISCKASGYSFTDYNINWVKQSNGKSLEWIGLINPNYGTTFYNQKFKGKATLTVDQSSSTAYMQLNSLTSEDSAVYYCARETLLLRYFDYWGQGTTLTVSS
VL: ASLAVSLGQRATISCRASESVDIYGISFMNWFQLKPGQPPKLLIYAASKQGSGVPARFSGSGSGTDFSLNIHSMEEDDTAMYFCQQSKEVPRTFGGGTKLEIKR
notes: Mouse monoclonal from an S100A9-null C57BL/6 mouse; also called anti-S100A9 mAb 43/8; mAb 43/8
Question: What does the source list for B7?
Answer: IC50 [3]: 120 nM; IC50 [4]: 34 nM; fold higher inhibition of S100A9 binding to immobilized 43/8 than for antibody 1C10 [5]: > 10 fold; IC50 [6]: 27 nM

B8: human S100A8/S100A9 complex (other)
chain 1: MLTELEKALNSIIDVYHKYSLIKGNFHAVYRDDLKKLLETECPQYIRKKGADVWFKELDINTDGAVNFQEFLILVIKMGVAAHKKSHEESHKE
chain 2: MTCKMSQLERNIETIINTFHQYSVKLGHPDTLNQGEFKELVRKDLQNFLKKENKNEKVIEHIMEDLDTNADKQLSFEEFIMLMARLTWASHEKMHEGDEGPGHHHKPGLGEGTP
notes: Heterodimer; also called S100A8/A9; S100A8/9
Question: Does B8 bind [1]?
Answer: binds

Question: Which “fold higher binding than the next group of RAGE binders (AnxII, S100A12, S100A8/9)” value [7] does the source give for B9 here?
Answer: 10 fold

B10: human S100A8 (other, UniProt P05109 1-93, looked up)
chain: MLTELEKALNSIIDVYHKYSLIKGNFHAVYRDDLKKLLETECPQYIRKKGADVWFKELDINTDGAVNFQEFLILVIKMGVAAHKKSHEESHKE
notes: The source is 'produced recombinantly ... or obtained from elsewhere'
Question: Does B10 bind [2]?
Answer: no binding (tested: 200 nM)

B11: hS100A11 (other, human, UniProt P31949 1-105, looked up)
S100A11: MAKISSPTETERCIESLIAVFQKYAGKDGYNYTLSKTEFLSFMNTELAAFTKNQKDPGVLDRMMKKLDTNSDGQLDFSEFLNLIGGLAMACHDSFLKAVPSQKRT
notes: recombinant; also called recombinant human S100A11 (ProSpec TechnoGene)
Question: Does B11 bind [2]?
Answer: no binding (tested: 200 nM)
